The text below walks through data of the supplement of paper PMC10567573.

B1: VPS39 (parent)
chain: LRLENNHCHIEESEHVLKKAHKYS
B2: TOR1AIP2 (parent)
chain: AGQEGEDTLRRRLLAPEAGSHPQQ
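Also: lentivirally expressed fusions sorted by FACS into six bins by GFP to DsRed ratio, PSI derived from sequencing read proportions per bin multiplied by bin number.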

Variants of B1 are the subject of the first series. As to the kind of experiment: protein stability index of a GFP-peptide fusion (GPS, HEK-293T) (PSI 1-6); higher = more stable. To be noted: c terminus: a fixed tail appended.
For LRLENNHCHIEESEHVLKKCHKYS, the protein stability index worked out at 2.04.

As for LRLENNHCHIEESEHVVKKAHKYS, the protein stability index came to 2.4.

In the case of LRLENNHCHIEESEHVTKKAHKYS, the protein stability index stood at 3.14.

Take LRLENNHCHIEESEHVPKKAHKYS: the protein stability index stood at 2.14.

Turning to LRLENNHCHIEESEHVWKKAHKYS, the protein stability index is 1.72.

Regarding LRLENNHCHIEESEHVNKKAHKYS, the protein stability index is 2.48.

For LRLENNHCHIEESEHVQKKAHKYS, the protein stability index stood at 2.4.

Regarding LRLENNHCHIEESEHVMKKAHKYS, the protein stability index is 1.56.

For LRLENNHCHIEESEHVSKKAHKYS, the protein stability index amounted to 2.84.

For the variant LRLENNHCHIEESEHVRKKAHKYS, the protein stability index came to 2.8.

On to LRLENNHCHIEESEHVYKKAHKYS, for which the protein stability index stood at 2.55.

For the variant LRLENNHCHIEESEHVLKKAHQYS, the protein stability index turned out to be 2.12.

With LRLENNHCHIEESEHVLKKAHCYS, the protein stability index is 2.02.

As for LRLENNHCHIEESEHVLKKAHTYS, the protein stability index stood at 3.65.

As for LRLENNHCHIEESEHVLKKAHEYS, the protein stability index turned out to be 2.4.

Turning to LRLENNHCHIEESEHVLKKAHVYS, the protein stability index worked out at 2.57.

For the variant LRLENNHCHIEESEHVLKKAHSYS, the protein stability index stood at 2.51.

On to LRLENNHCHIEESEHVLKKAHIYS, for which the protein stability index stood at 1.65.

LRLENNHCHIEESEHVLKKAHHYS: the protein stability index was found to be 2.58.

With LRLENNHCHIEESEHVLKKAHPYS, the protein stability index amounted to 2.79.

Consider LRLENNHCHIEESEHVLKKAHNYS, for which the protein stability index stood at 2.44.

As to LRLENNHCHIEESEHVLKKAHFYS, the protein stability index was 1.84.

Consider LRLENNHCHIEESEHVLKKAHMYS, for which the protein stability index is 1.62.

For LRLENNHCHIEESEHVLKKAHLYS, the protein stability index is 1.99.

As to LRLENNHCHIEESEHVLKKAHAYS, the protein stability index stood at 2.48.

For LRLENNHCHIEESEHVLKKAHGYS, the protein stability index amounted to 2.96.

With LRLENNHCHIEESEHVLKKAHDYS, the protein stability index amounted to 3.15.

For the variant LRLENNHCHIEESEHVLKKAHYYS, the protein stability index amounted to 2.55.

LRLENNHCHIEESEHVLKKAHWYS: the protein stability index came to 1.84.

For the variant LRLENNHCHIEESEHVLKKAHRYS, the protein stability index worked out at 2.34.

Take LRLENNHCHIEESEHVLKKAHKYY: the protein stability index stood at 2.28.

For the variant LRLENNHCHIEESEHVLKKAHKYT, the protein stability index was found to be 2.07.

In the case of LRLENNHCHIEESEHVLKKAHKYV, the protein stability index came out at 1.83.

As for LRLENNHCHIEESEHVLKKAHKYH, the protein stability index is 2.65.

For LRLENNHCHIEESEHVLKKAHKYM, the protein stability index turned out to be 2.18.

As to LRLENNHCHIEESEHVLKKAHKYK, the protein stability index turned out to be 2.09.

As to LRLENNHCHIEESEHVLKKAHKYN, the protein stability index is 2.3.

Take LRLENNHCHIEESEHVLKKAHKYR: the protein stability index was 2.38.

Turning to LRLENNHCHIEESEHVLKKAHKYP, the protein stability index came out at 1.74.

Consider LRLENNHCHIEESEHVLKKAHKYQ, for which the protein stability index was 1.92.

As for LRLENNHCHIEESEHVLKKAHKYD, the protein stability index turned out to be 2.25.

In the case of LRLENNHCHIEESEHVLKKAHKYG, the protein stability index amounted to 2.84.

Turning to LRLENNHCHIEESEHVLKKAHKYL, the protein stability index is 2.08.

With LRLENNHCHIEESEHVLKKAHKYE, the protein stability index turned out to be 3.82.

With LRLENNHCHIEESEHVLKKAHKYA, the protein stability index is 1.29.

With LRLENNHCHIEESEHVLKKAHKYC, the protein stability index amounted to 2.17.

Turning to LRLENNHCHIEESEHVLKKAHKYI, the protein stability index was found to be 2.04.

Turning to LRLENNHCHIEESEHVLKKAHKYW, the protein stability index came to 2.24.

Regarding LRLENNHCHIEESEHVLKKAHKYF, the protein stability index worked out at 2.37.

Variants of B2 are the subject of another series. The description is as above. Conditions: c terminus: a fixed tail appended.
Consider AVQEGEDTLRRRLLAPEAGSHPQQ, for which the protein stability index was 1.67.

Take AYQEGEDTLRRRLLAPEAGSHPQQ: the protein stability index was found to be 2.12.

In the case of AKQEGEDTLRRRLLAPEAGSHPQQ, the protein stability index was 3.32.

Take AHQEGEDTLRRRLLAPEAGSHPQQ: the protein stability index came to 3.58.

Turning to ASQEGEDTLRRRLLAPEAGSHPQQ, the protein stability index was determined as 2.71.

AQQEGEDTLRRRLLAPEAGSHPQQ: the protein stability index came to 1.64.

For AIQEGEDTLRRRLLAPEAGSHPQQ, the protein stability index was 2.19.

With ACQEGEDTLRRRLLAPEAGSHPQQ, the protein stability index turned out to be 1.6.

Regarding AFQEGEDTLRRRLLAPEAGSHPQQ, the protein stability index stood at 2.99.

With AMQEGEDTLRRRLLAPEAGSHPQQ, the protein stability index is 1.55.

For ANQEGEDTLRRRLLAPEAGSHPQQ, the protein stability index turned out to be 3.23.

As to APQEGEDTLRRRLLAPEAGSHPQQ, the protein stability index was 1.51.

As to ARQEGEDTLRRRLLAPEAGSHPQQ, the protein stability index was 2.91.

As for AEQEGEDTLRRRLLAPEAGSHPQQ, the protein stability index worked out at 2.74.

For the variant AAQEGEDTLRRRLLAPEAGSHPQQ, the protein stability index came out at 4.25.

For the variant ADQEGEDTLRRRLLAPEAGSHPQQ, the protein stability index was 5.64.

For AWQEGEDTLRRRLLAPEAGSHPQQ, the protein stability index stood at 2.45.

DGQEGEDTLRRRLLAPEAGSHPQQ: the protein stability index came out at 4.05.

TGQEGEDTLRRRLLAPEAGSHPQQ: the protein stability index came to 2.11.

Consider LGQEGEDTLRRRLLAPEAGSHPQQ, for which the protein stability index worked out at 2.

For the variant FGQEGEDTLRRRLLAPEAGSHPQQ, the protein stability index came to 1.83.

Turning to QGQEGEDTLRRRLLAPEAGSHPQQ, the protein stability index was 2.57.

In the case of GGQEGEDTLRRRLLAPEAGSHPQQ, the protein stability index is 3.25.

In the case of VGQEGEDTLRRRLLAPEAGSHPQQ, the protein stability index came out at 3.31.

On to WGQEGEDTLRRRLLAPEAGSHPQQ, for which the protein stability index was 3.19.

In the case of YGQEGEDTLRRRLLAPEAGSHPQQ, the protein stability index was determined as 2.26.

Regarding RGQEGEDTLRRRLLAPEAGSHPQQ, the protein stability index was found to be 2.29.

On to SGQEGEDTLRRRLLAPEAGSHPQQ, for which the protein stability index came out at 1.4.

As to HGQEGEDTLRRRLLAPEAGSHPQQ, the protein stability index turned out to be 3.53.

For the variant NGQEGEDTLRRRLLAPEAGSHPQQ, the protein stability index amounted to 2.5.

With IGQEGEDTLRRRLLAPEAGSHPQQ, the protein stability index turned out to be 4.08.

For EGQEGEDTLRRRLLAPEAGSHPQQ, the protein stability index is 4.54.

With KGQEGEDTLRRRLLAPEAGSHPQQ, the protein stability index is 2.54.

As to PGQEGEDTLRRRLLAPEAGSHPQQ, the protein stability index came to 4.86.

Consider AGGEGEDTLRRRLLAPEAGSHPQQ, for which the protein stability index was 2.65.

Turning to AGCEGEDTLRRRLLAPEAGSHPQQ, the protein stability index was determined as 1.34.

On to AGMEGEDTLRRRLLAPEAGSHPQQ, for which the protein stability index is 1.74.

With AGEEGEDTLRRRLLAPEAGSHPQQ, the protein stability index was 3.17.

For the variant AGDEGEDTLRRRLLAPEAGSHPQQ, the protein stability index worked out at 3.76.

For the variant AGNEGEDTLRRRLLAPEAGSHPQQ, the protein stability index was found to be 1.82.

Turning to AGIEGEDTLRRRLLAPEAGSHPQQ, the protein stability index turned out to be 1.55.

As to AGAEGEDTLRRRLLAPEAGSHPQQ, the protein stability index came out at 2.22.

Consider AGFEGEDTLRRRLLAPEAGSHPQQ, for which the protein stability index is 2.05.

Turning to AGKEGEDTLRRRLLAPEAGSHPQQ, the protein stability index came to 2.02.

On to AGLEGEDTLRRRLLAPEAGSHPQQ, for which the protein stability index stood at 2.47.
